Measured values published in patent US20260250370.

Tested on: TGFβ1 C4S Small Latent Complex (SLC)
Sequence (chain, as listed by the source): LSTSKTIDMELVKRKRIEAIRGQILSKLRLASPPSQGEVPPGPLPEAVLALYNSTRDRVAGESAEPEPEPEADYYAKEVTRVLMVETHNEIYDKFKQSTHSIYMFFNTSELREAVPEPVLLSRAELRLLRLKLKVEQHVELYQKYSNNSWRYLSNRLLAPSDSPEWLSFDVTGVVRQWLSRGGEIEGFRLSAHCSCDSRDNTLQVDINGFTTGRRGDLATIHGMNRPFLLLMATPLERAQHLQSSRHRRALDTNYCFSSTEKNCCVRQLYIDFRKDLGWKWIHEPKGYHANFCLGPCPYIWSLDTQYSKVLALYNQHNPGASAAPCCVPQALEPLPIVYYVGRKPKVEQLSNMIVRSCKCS

kallikrein
kallikrein digestion of LAP (gel): LAP can be cleaved by kallikrein into a R^58 LAP-D fragment and a L^59 LAP-D fragment
